Measured values published in patent US20110217317A1 (published 2011).

T1: Rhesus D antigen (human, UniProt Q02161 2-417)
T1 construct: whole, on cells; Presented on RhD-positive erythrocytes in all assays; also called RhD; RhD antigen
T1 sequence (looked up): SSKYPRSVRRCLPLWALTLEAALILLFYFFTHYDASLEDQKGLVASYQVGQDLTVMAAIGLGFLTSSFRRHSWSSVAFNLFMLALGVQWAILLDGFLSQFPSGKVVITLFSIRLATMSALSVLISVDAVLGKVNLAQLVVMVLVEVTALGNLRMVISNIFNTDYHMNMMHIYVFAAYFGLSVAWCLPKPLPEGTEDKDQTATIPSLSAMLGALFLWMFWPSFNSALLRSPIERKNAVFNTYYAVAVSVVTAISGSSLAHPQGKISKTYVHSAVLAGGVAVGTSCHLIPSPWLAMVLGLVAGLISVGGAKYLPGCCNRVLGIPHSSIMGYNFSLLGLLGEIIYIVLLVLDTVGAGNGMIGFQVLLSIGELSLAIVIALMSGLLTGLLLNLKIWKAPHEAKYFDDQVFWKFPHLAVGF


Target: T1, Rhesus D antigen
Experiment: agglutination assay, Fab on RhD(+)/RhD(-) RBC mix
Description: After each round of panning single colonies were picked for analysis of their binding properties to red blood cells in agglutination assays. Briefly, single colonies were inoculated into 2×YT/100 μg/mL carbenicillin/1% glucose and shaken overnight at 37° C. The next day, DeepWell plates were inoculated using 900 μl 2×YT/100 μg/mL carbenicillin/0.1% glucose and 10 μl overnight culture. The plates were shaken for two hours at 37° C., before Fab induction was performed with addition of 300 μl 2×YT/100 μg/mL carbenicillin/0.25 mM IPTG per well. The plate was shaken overnight at 30° C. The following day, the bacteria were pelleted by centrifugation (3200×g, 4° C., 10 minutes), and re-suspended in 100 μl of 0.8 M NaCl, 0.2×PBS, 8 mM EDTA, and incubated for 15 minutes on ice in order to perform a periplasmic extraction of the Fab fragments. The plate was transferred to −20° C. and finally the suspension was thawed and centrifugation was performed for 10 minutes at 4° C. and 3200×g. The periplasmic extract was used in ELISA assays for analysis of Fab content and in agglutination assays to evaluate the binding potential of the individual Fab fragments. The agglutination assay was performed as follows: RhD(−) and RhD(+) RBC were mixed in a 1:1 ratio, and washed 3 times in PBS. After the final wash, the cell mix was re-suspended in 1% BSA in PBS at a density of 1% cells, 50 μl was added to each well of a 96-plate. Periplasmic extracts were added to the wells. As a positive control Rhesogamma P immunoglobulin (Aventis) was used according to the manufacturer's instructions. The plates were incubated for one hour at room temperature with gentle shaking. The cells were washed three times with PBS, before the secondary antibody was added (goat anti-human Fab/FITC conjugate, Sigma F5512) in a 1:100 dilution. The plates were left for agglutination for one hour at room temperature without shaking. Fab fragments positive in the agglutination assay was determined by visual inspection, and recorded by taking a picture. Quantization of the binding activity of the Fab fragments was performed by FACS analysis of the agglutination samples.

| Binder | binding result |
| --- | --- |
| RhD206.160C06 (Fab, V domains shown, Tested as Fab (periplasmic extract)) VH: QVQLVESGGGVVQPGRSLRLSCAASGFTFSSYGMHWVRQAPGKGLEWVAIIWFDGSNKYYADSVKGRFTISRDNSKNTLYLQINSLRAEDTAVYYCAKEHGYYSSSWYRNYYYYAMDVWGQGTTVTVSS VL: DIQMTQSPSSLSASVGDRVTITCRASQSIRRYLNWYQKKPGKAPKLLIYAASSLQSGVPSRFSGSGSGTDFTLTISSLQPEDFATYYCQQSYRTQGLTFGGGTKVEIKR | binds |
| RhD205.160B12 (Fab, V domains shown, Tested as Fab (periplasmic extract)) VH: EVQLVETGGGLVKPGGSLRLSCAASGFTFRSYSMNWVRQAPGKGLEWVSSIGSSSTYTYSADSVKGRFTISRDNAKNSLYLQMNSLRAEDTAVYYCARGEPLNYDYIWGGYRFTIHWGQGTLVTVSS VL: DIQLTQSPSFLSASVGDRVTITCRASHGISSYLAWYQQKPGKAPNLLIFPASTLQSGVPSRFSGSGSGTEFTLTISSLRPEDFATYYCQQLNSYSRWAFGQGTKVEVKR | binds |
| RhD240.125A09 (Fab, V domains shown, Tested as Fab (periplasmic extract)) VH: QLQLQESGPGLVKPSGTLSLTCAVSGGSMRSSNWWTWVRQPPGKGLEWIGEIHHGGSTNYNPSLQSRVTISVDKSKNRFSLKLSSVTAADTAVYHCARGRSYYDSSGHSFRGLVPFDIWGQGTMVTVSS VL: DIQMTQSPSTLSASVGDRVTITCRASQSISSWLAWYQQKPGKAPKLLVYKTSSLEGGVPSRFSGSGSGTEFSLTIFRLQSDDFATYYCQQYNSFPYTFGQGTKLEFTR | binds |
| RhD246.179B10 (Fab, V domains shown, Tested as Fab (periplasmic extract)) VH: EVQLVETGGGVVQPGRSLRLSCAASGFTFSSYGMHWVRQAPGKGLEWVAVIWYDGSNKYYADSVKGRFTISRDNSKNTLYLQMNSLRAEDTAVYYCAREMVSYSSSWYRRYYYYNMDVWGKGTTVTVSS VL: LSSELTQDPAVSVTLGQTVRITCQGDSLRHSYASWYQQKPGQAPILVIYGKNIRPSGIPDRFSGSTSGNTASLTITGAQAEDGGDYYCNSRDTSTDHYVFGDGTRVTVVG | binds |
| RhD208.179B11 (Fab, V domains shown, Tested as Fab (periplasmic extract)) VH: EVQLVESGGGVVQPGRSLRLSCAASGFTFRTSAMHWVRQAPGKGLEWVAVIWYDGSNKYYADSVKGRFTISRDNSKNTLYLQMNSLRAEDTAVYYCAREMVSYSSSWYRRYYYYNMDVWGKGTTVTVSS VL: QAVVTQEPSLTVSPGGTVTLTCASSTGSVTSGYYPNWFQQKPGQAPRPLISGTSNKLSWTPARFSGSLLGGKAALTVSGVQPEDEAVYYCLLYYGVPQPVVFGGGTKLTVLG | binds |
| RhD204.128A03 (Fab, V domains shown, Tested as Fab (periplasmic extract); lambda clone) VH: EVQLVESGGGVVQPGRSLRLSCAASGFSFSNYGMHWVRQAPGKGLEWVAVISYDGSEKYYADSVKGRFTISRDNSKKALYLQMNSLRAEDTAMYYCKNKVGATRRAVVAFDIWGQGTTVTVSS VL: LSSELTQDPAVSVALGQTVRITCQGDSLRSYYANWYQQKPGQAPLSVIYGKNNRPSGIPDRFSGSNSGNTAFLTITGTQAEDEADYYCNSRDSSGNYRELFGGGTKLTVLG | binds |
| RhD294.119E10 (Fab, V domains shown, Tested as Fab (periplasmic extract)) VH: QVQLVESGGGVVQPGRSLRLSCAASGFSFSNYGMHWVRQAPGKGLEWVAVISYDGSEKYYADSVKGRFTISRDNSKKTLYLQMNSLRAEDTAMYYCKNKVGATRRAVVAVDIWGQGTMVTVSS VL: EIVLTQSPGTLSLSPRERATLSCRANQYVNSNHLAWYQQKPGQAPRLLLYGASRRATGIPDRFSGSGTGTDFTLIISRLEPEDFAVYFCQLYDHSRPMYTFGQGTKLEIKR | binds |
| RhD158.119B06 (Fab, V domains shown, Tested as Fab (periplasmic extract)) VH: EVQLVETGGGVVQPGRSLRLSCAASGFSFSNFGFHWIRQSPGKGLEWVAVIWYDGSNRFYADSVKGRFTISRDSSKNMLFLQMDSLRAEDTAVYYCAREISMKVVIRRHYVMDVWGHGTTVTVSS VL: DIQMTQSPSPLSASVGDRVSITCRASRGISNSLAWYQQKPGKVPKLLIYAASTLQSGVPSRFSGGGSGTDFTLTISSLQPEDVATYYCHTYNSAPFAFGPGTKVDIKR | binds |
| RhD293.109A09 (Fab, V domains shown, Tested as Fab (periplasmic extract)) VH: EVQLVESGGGVVQPGRSLRLSCAASGFTFNTYGMHWVRQAPGKGLEWVAVIWYDGSNKYYADSVKGRFTISRDNSKNTLYLQMNSLRAEDTAVYYCAREVAVRGVIRYYYAMDVWGQGTTVTVSS VL: not shown | binds |

Results, then the binder that gave them:

| binding result | Binder |
| --- | --- |
| binds | RhD244.158B10 (Fab, V domains shown, Tested as Fab (periplasmic extract)) VH: QVQLVESGGGVVQPGRSLRLSCAASGFSFSSYGMHWVRQAPGKGLEWVAIIWYDGSNKLYADSVKGRFTISRDNSRNTLYLQMSSVRAEDTAVYYCARDSVRGVSRWGTQKYYAMDVWGQGTTVTVSS VL: DIQMTQSPSSLSASVGDRVIITCRASQSVNRYLNWYQQKPGKAPKLLIYAASSLQGGVPSRFSGSGSGTDFTLTISSLQREDFATYYCQQSYRTRTFGQGTKVEIKR |
| binds | RhD239.126F09 (Fab, V domains shown, Tested as Fab (periplasmic extract)) VH: QVQLVESGGGVVQPGTSLRLSCAASGFTFRTYGMHWVRQAPGKGLEWVAYIWYDGSNKYYADSVKGRFTISRDNSKSTLNLQMNSLRAEDTAVYYCAREIASRGYSRYLYYFDSWGQGTLVTVSS VL: DIQLTQSPSSLSASVGDRVTITCRASQSISSYLNWYQQKPGKAPKLLISAASSLQSGVPSRFSGSGSGTDFTLTISSLQREDYATYYCQQSYSTPPYTFGQGTKLEIKR |
| binds | RhD292.109A02 (Fab, V domains shown, Tested as Fab (periplasmic extract)) VH: QVQLVETGGGVVQPGRSLRLSCAASGFTFSSYGMHWVRQAPGKGLEWVAVIWSDGSNKYYADSVKGRFTISRDNSRNTLYLQMNSLRAEDTAVFYCAREQGGYSSSWYRRYYYYYMDVWGQGTTVTVSS VL: DIQMTQSPSSLSASVGDRVTITCRASQSISSWLNWYQQKPGKAPNLLIFAASTLQSGVPSRFSGSGSGTDFTLTISSLQPEDFATYYCQQSYSSSVYTFGQGTKLEIKR |
| binds | RhD203.179F07 (Fab, V domains shown, Tested as Fab (periplasmic extract)) VH: EVQLVESGGGVVQPGRSLRLSCAASGFTFSNYGMHWVRQAPGKGLEWVAVIWYDGSNKYYADSVKGRFTISRDNSKNTLYLQMNSLRAEDTAVYYCAREMVSYSSSWYRRYYYYVMDVWGKGTTVTVSS VL: QSALTQPASVSGSPGQSITISCTATSSDIGAYNYVSWYQHHPGKAPKVIITDVNKRPSGVPDRFSGSKSGNTASLTISGLQPEDEAEYSCCSYAGTYSYVFGTGTKVTVLS |
| binds | RhD242.181A03 (Fab, V domains shown, Tested as Fab (periplasmic extract)) VH: EVQLVESGGGVVQPGRSLRLSCAASGFTFSNHGMHWVRQAPGKGLEWVAVIWYDGSNKYYADSVKGRFTISRDNSKNTLYLQMNSLRAEDTAVYYCAREMASYSSSWYRRYYYYVMDVWGKGTTVTVSS VL: not shown |
| binds | RhD245.164E06 (Fab, V domains shown, Tested as Fab (periplasmic extract)) VH: EVQLVQSGGGVVQPGRSPRLSCAASGFTFSSYGMHWVRQAPGKGLEWVAFIWYDGSNKYYADSVKGRFTISRDNSKNTLYLQMNSLRAEDTAVYYCARDLRNHVFWSGYSTSFDYWGQGTLVTVSS VL: DIQMTQSPSSLSASVGDGITITCRASQSVRSYLNWYQQKPGKAPELLIYAASRLQSGVPSRFSGSGSGTDFTLTISSLQPEDFATYYCQHSYSTPVTFGQGTKVEVKR |
| binds | RhD243.109A05 (Fab, V domains shown, Tested as Fab (periplasmic extract)) VH: QVQLVESGGGVVQPGRSLRLSCAASGFTFSTYGMHWVRQAPGKGLEWVAVIWYDGSQKYYVDSVKGRFTISRDNSKNTLYLQMNSLRAEDTAVYYCAREVAVRGVIRYYYGMDVWGQGTTVTVSS VL: DIQLTQSPSSLAASVGDRVIITCRSGQGIRNYLNWYQQKPGKAPKLLIYAASFLQSGVPSRFSGSGSGTDFTLTISSLQPEDFATYNCQQSYSDPWTFGQGTKVEIKR |
| binds | RhD241.119B05 (Fab, V domains shown, Tested as Fab (periplasmic extract)) VH: QVQLQESGPGLVKPSETLSLICTVSGGSISSNYWSWIRQPPGKGLEWIGYIYYSGNTNYNPSLKSRVTISLDTSKNQFSLKLRSVTAADTAVYYCAREWRQYGSGIRGSRYYYGMDVWGQGTLVTVSS VL: EIVLTQSPVTLSLSPGERATLSCRASQSVSSGYLAWYQQKPGQAPRLLIYGTSIRATGIPDRFSGSGSGTDFTLTISRLEPEDFAVYYCQQYGSSPLYSFGQGTKVDIKR |
